One data set can be described thus: physchem. To be noted: buffer A (phosphate buffer), pH 7.4.
The conditions of data set [1]: human, in vivo; cited from earlier work.

Experimental for physchem: In vitro linker hydrolysis and release of drug: Compounds were dissolved in buffer A (10 mM sodium phosphate, 140 mM NaCl, pH 7.4, 3 mM EDTA) or buffer B (0.1 M Acetat 3 mM EDTA, pH 4.0), and solution was filtered through a 0.2 μm filter and incubated at 37° C. Samples were taken at time intervals and analyzed by RP-HPLC at 215 nm and ESI-MS. UV-signals correlating to liberated drug molecule were integrated and plotted against incubation time. In case of identical retention times of prodrug and drug, ratio of mass signals was used to determine release kinetics.
For hydrogel conjugates, compounds were suspended in buffer A and incubated at 37° C. Samples were taken after centrifugation of the suspension and analyzed by RP-HPLC at 215 nm. UV-signals correlating to liberated drug molecule were integrated and plotted against incubation time.
Curve-fitting software was applied to estimate the corresponding halftime of release.

For orientation: half-life means the time in which the quantity being followed falls by half. In the case of `CCCCCCCCCCCC(=O)NC(CCCCNC(=O)CCOCCOCCOCCOCCOCCOCCOCCOCCOCCOCCOCCOCCNC(=O)CCN1C(=O)CC(SCCNC(=O)CN2CCN(CCNC(=O)[C@@H]3CCCC[C@@H]3C(=O)N3CCN(C4=Nc5ccccc5Oc5ccc(Cl)cc54)CC3)CC2)C1=O)C(N)=O` (some centres unmarked) [Compound 5], the half-life in “physchem” was 22 h. For the compound “Exendin-4: GLP-1 receptor agonist peptide; high potency agonist at the glucagon-like peptide 1-(7-36)-amide receptor”, in data set [1], the Plasma half-life was 0.433 h.

The values are drawn from patent US20170100490A1, “Prodrug Comprising a Drug Linker Conjugate” (Ascendis Pharma A/S, priority 2008, published 2017).
